Measured values from US20050272107A1 (MEDICAL RESEARCH COUNCIL, published 2005).

What was measured:
[1] = target: RAS antigen of the BIAcore measurements; test: SPR, BIAcore 2000
[2] = target: RAS antigen of the BIAcore measurements; test: SPR, BIAcore 2000; Kd = koff/kon

B1: anti-RAS scFv33 (scFv)
chain: QVQLVEAGGGLVQPGGSLRLSCAASGFSFSTFSMNWVRQAPGKGLEWVSYISSSGRTIYYADSVKGRFTISRDNAKNSLYLQMNSLRDEDTAVYYCARGRFFDYWGQGTLVTVSSGGGGSGGGGSGGGGSDIVMTQSPSFLSASVGDRVTITCRASQSISRYLNWYQQKPGKAPKLLIYAASSLQSGVPSRFSGSGSGTDFTLTISSLQPEDFAIYYCQQSYSTLLTFGGGTKLEIKR
Binder B1 has a koff [1] of 0.00113 s⁻¹, a kon [1] of 176000 M⁻¹ s⁻¹ and a Kd [2] of 9.97 nM.
